Values joined by “and” are separate entries in the source; they are usually repeats but may differ in a detail not shown here. Identical values can stand only once.
Key:
Abz-Ala-Glu-Pro-Phe-pNA = experiment: Peptide-based isomerization assay, PPIase activity, Glu substrate; type: biochemical
Procedure: (§1) To determine the activity of PPIases, peptides with either Leu or Glu preceding the Pro were used. Buffer and the desired concentration of PPIase were mixed in a QS quartz cuvette (Hellma Analytics) and incubated for 2 min under constant stirring. Peptide was added and the fluorescence increase was monitored.

WT SthK = experiment: Stopped-flow Tl+ flux assay, WT SthK in proteo-liposomes; type: biochemical, Spirochaeta thermophila; design: key to averaged rate: normalized Tl+ influx rate at 2 ms (unitless, relative)
From the text: (§2) In all cyclic nucleotide-gated channels the connection between the C-linker and the CNBD is formed by a helix-loop-helix motif called the siphon. […] This proline had not been previously implicated in prolyl isomerization in HCN channels or SthK. Due to steric restrictions and the lack of an amide-proton, prolines are only rarely found at the C-termini of α-helices[20],[21]. To test whether this unusual proline (Pro300, Fig. 1a, b) plays a role in channel activation, we employed a fluorescence-based stopped-flow assay to measure activation kinetics of a SthK mutant where the proline was substituted by an alanine.
(§3) All stopped-flow experiments were performed at 25 °C using a SX.20 sequential mixing fluorescence spectrophotometer (Applied Photophysics, Leatherhead, UK) controlled using ProDataSX as described before. In order to prepare liposomes for the Tl^+ flux assays 15 mg of DOPC:POPG:Cardiolipin (5:3:2, w/w/w) in chloroform were dried to a thin film in glass tubes under constant N2 flow and further dried under vacuum overnight. […] The sample was incubated at 21 °C under constant agitation for 3 h, the supernatant was transferred to a new glass tube and stored at 13 °C overnight. […] The liposome solution was diluted 5-times in sample buffer right before the experiments to ensure a good signal-to-noise ratio.
(§4) For the time course of activation in the presence of PPIases 2 µM of enzyme were added to the liposome solution and incubated for at least 10 min before the experiment yielding 1 µM of enzyme in the aging loop (after the first mixing event).
(§5) During one experiment, at least seven technical repeats were performed for each data point, every repeat was visually inspected for its quality, mixing artifacts were sorted out and the remaining repeats (typically 6–7 technical repeats) were analyzed separately in Matlab using a stretched exponential function (Eq. (2)) and the rate of Tl^+ influx into liposomes was calculated at 2 ms according to Eq. (3). 5000 data points were recorded over 1 s, however, to obtain the initial rate of Tl^+ influx only the first 100 ms were analyzed. The use of a stretched exponential function is necessary since the sizes of the liposomes vary and different amounts of channel proteins can be incorporated in different liposomes.2 Ft=F∞+F0−F∞⋅e^−t/τ^β 3 kt=β/τ⋅0.002s/τ^β−1 with Ft, F∞, F0 being the fluorescence at time t, the final fluorescence and the initial fluorescence, respectively. t is the time (in s), τ the time constant (in s) and β the stretched exponential factor. kt is the calculated rate (in s^−1) of Tl^+ influx at 2 ms.
(§6) The calculated rates kt were then averaged and the standard deviation (S.D.) was determined. Each experiment was independently repeated at least three times, the obtained rate constants were normalized, averaged and the S.D. was determined.
(§7) All further analysis was performed in GraFit. For the time course of channel activation, the rates were plotted as a function of the delay time in the first mixing step and fitted according to a double exponential.

Abz-Ala-Leu-Pro-Phe-pNA = experiment: Peptide-based isomerization assay, PPIase activity, Leu substrate; type: biochemical
Procedure: as §1

SthK P300A = experiment: Stopped-flow Tl+ flux assay, SthK P300A in proteo-liposomes; type: biochemical, Spirochaeta thermophila; conditions: SthK P300A + SlyD; for averaged rate: mean of normalized rates; for normalized rate: single replicates
From the text: as §2, §3, §4, §5, §6, §7

[1] = 1 µM PPIase, 100 µM cAMP, delay time 0.012 s
[2] = 1 µM PPIase, 100 µM cAMP, delay time 0.050 s
[3] = 1 µM PPIase, 100 µM cAMP, delay time 0.100 s
[4] = 1 µM PPIase, 100 µM cAMP, delay time 0.500 s
[5] = 1 µM PPIase, 100 µM cAMP, delay time 1.000 s
[6] = 1 µM PPIase, 100 µM cAMP, delay time 2.500 s
[7] = 1 µM PPIase, 100 µM cAMP, delay time 5.000 s
[8] = 1 µM PPIase, 100 µM cAMP, delay time 10.000 s
[9] = [PPIase] 10 pM, 12 ms with 100 µM cAMP
[10] = [PPIase] 100 pM, 12 ms with 100 µM cAMP
[11] = [PPIase] 1e-8 M, 12 ms with 100 µM cAMP
[12] = [PPIase] 1e-7 M, 12 ms with 100 µM cAMP
[13] = [PPIase] 1e-6 M, 12 ms with 100 µM cAMP
[14] = [PPIase] 1e-5 M, 12 ms with 100 µM cAMP

B1: SlyD: bacterial FKBP-type isomerase (UniProt P0A9K9, residues 1–165) (protein, UniProt P0A9K9 1-165, looked up, fragment)
chain: MKVAKDLVVSLAYQVRTEDGVLVDESPVSAPLDYLHGHGSLISGLETALEGHEVGDKFDVAVGANDAYGQYDENLVQRVPKDVFMGVDELQVGMRFLAETDQGPVPVEITAVEDDHVVVDGNHMLAGQNLKFNVEVVAIREATEEELAHGHVHGAHDHHHDHDHD
Abz-Ala-Glu-Pro-Phe-pNA; KCl, EPF substrate, 2 nM enzyme
  apparent rate: 0.026 s⁻¹ and 0.024 s⁻¹
Abz-Ala-Glu-Pro-Phe-pNA; KCl, EPF substrate, 5 nM enzyme
  apparent rate: 0.025 s⁻¹ and 0.026 s⁻¹
Abz-Ala-Glu-Pro-Phe-pNA; KCl, EPF substrate, 10 nM enzyme
  apparent rate: 0.024 s⁻¹ and 0.025 s⁻¹
Abz-Ala-Glu-Pro-Phe-pNA; KCl, EPF substrate, 15 nM enzyme
  apparent rate: 0.025 s⁻¹ and 0.024 s⁻¹
Abz-Ala-Glu-Pro-Phe-pNA; KNO3, EPF substrate, 2 nM enzyme
  apparent rate: 0.023 s⁻¹ and 0.027 s⁻¹
Abz-Ala-Glu-Pro-Phe-pNA; KNO3, EPF substrate, 5 nM enzyme
  apparent rate: 0.024 s⁻¹ and 0.029 s⁻¹ and 0.027 s⁻¹
Abz-Ala-Glu-Pro-Phe-pNA; KNO3, EPF substrate, 10 nM enzyme
  apparent rate: 0.028 s⁻¹ and 0.024 s⁻¹ and 0.026 s⁻¹
Abz-Ala-Glu-Pro-Phe-pNA; KNO3, EPF substrate, 15 nM enzyme
  apparent rate: 0.024 s⁻¹ and 0.027 s⁻¹
WT SthK; [1]
  averaged rate: 1.130
  normalized rate: 0.993 and 1.357 and 1.239 and 1.025 and 1.202 and 0.960
WT SthK; [2]
  averaged rate: 1.035
  normalized rate: 1.008 and 0.974 and 1.215 and 1.144 and 1.115 and 0.926 and 0.860
WT SthK; [3]
  averaged rate: 0.965
  normalized rate: 0.986 and 0.930 and 0.972 and 1.038 and 1.181 and 0.964 and 0.683
WT SthK; 1 µM PPIase, 100 µM cAMP, delay time 0.250 s
  normalized rate: 0.815 and 0.934 and 1.134 and 1.296 and 1.074 and 0.872
WT SthK; [4]
  averaged rate: 0.978
  normalized rate: 0.911 and 0.879 and 0.973 and 1.305 and 0.757 and 1.021 and 1.000
WT SthK; [5]
  averaged rate: 0.917
  normalized rate: 0.846 and 1.000 and 0.945 and 0.918 and 0.791 and 0.664
WT SthK; [6]
  averaged rate: 0.942
  normalized rate: 0.974 and 0.975 and 0.900 and 0.886 and 0.933 and 1.068
WT SthK; [7]
  averaged rate: 1.014
  normalized rate: 0.948 and 0.912 and 0.942 and 1.000 and 1.421 and 0.879
WT SthK; [8]
  averaged rate: 0.922
  normalized rate: 1.000 and 0.963 and 0.916 and 0.966 and 0.900 and 0.827 and 0.883
WT SthK; 1 µM protein, 100 µM cAMP
  effect on SthK activation (slow activation phase): abolished
WT SthK; PPIase concentration dependence of normalized Tl+ flux rate, 12 ms incubation with 100 µM cAMP
  EC50: ~30 nM
WT SthK; [9]
  averaged rate: 0.622
  normalized rate: 0.592 and 0.562 and 0.636 and 0.697
WT SthK; [10]
  averaged rate: 0.685
  normalized rate: 0.710 and 0.760 and 0.585
WT SthK; [PPIase] 1e-9 M, 12 ms with 100 µM cAMP
  normalized rate: 0.755 and 0.566 and 0.775 and 0.750
WT SthK; [11]
  averaged rate: 0.814
  normalized rate: 0.965 and 0.565 and 0.822 and 0.905
WT SthK; [12]
  averaged rate: 0.961
  normalized rate: 1.083 and 0.844 and 0.962 and 0.956
WT SthK; [13]
  averaged rate: 0.999
  normalized rate: 1.000 and 0.992 and 1.006
WT SthK; [14]
  averaged rate: 1.000
  normalized rate: 1.000
Abz-Ala-Leu-Pro-Phe-pNA; KCl, LPF substrate, 2 nM enzyme
  apparent rate: 0.041 s⁻¹ and 0.044 s⁻¹ and 0.045 s⁻¹
Abz-Ala-Leu-Pro-Phe-pNA; KCl, LPF substrate, 5 nM enzyme
  apparent rate: 0.051 s⁻¹ and 0.061 s⁻¹ and 0.048 s⁻¹
Abz-Ala-Leu-Pro-Phe-pNA; KCl, LPF substrate, 10 nM enzyme
  apparent rate: 0.068 s⁻¹ and 0.054 s⁻¹ and 0.069 s⁻¹
Abz-Ala-Leu-Pro-Phe-pNA; KCl, LPF substrate, 15 nM enzyme
  apparent rate: 0.053 s⁻¹ and 0.072 s⁻¹ and 0.063 s⁻¹
Abz-Ala-Leu-Pro-Phe-pNA; KNO3, LPF substrate, 2 nM enzyme
  apparent rate: 0.049 s⁻¹ and 0.043 s⁻¹ and 0.048 s⁻¹
Abz-Ala-Leu-Pro-Phe-pNA; KNO3, LPF substrate, 5 nM enzyme
  apparent rate: 0.062 s⁻¹ and 0.056 s⁻¹ and 0.074 s⁻¹
Abz-Ala-Leu-Pro-Phe-pNA; KNO3, LPF substrate, 10 nM enzyme
  apparent rate: 0.072 s⁻¹ and 0.045 s⁻¹
Abz-Ala-Leu-Pro-Phe-pNA; KNO3, LPF substrate, 15 nM enzyme
  apparent rate: 0.062 s⁻¹ and 0.069 s⁻¹ and 0.077 s⁻¹
SthK P300A; delay time 0.010 s
  averaged rate: 1.007
  normalized rate: 1.011 and 0.947
SthK P300A; delay time 0.025 s
  averaged rate: 0.973
  normalized rate: 0.800
SthK P300A; delay time 0.050 s
  averaged rate: 0.981
  normalized rate: 0.892 and 1.105
SthK P300A; delay time 0.100 s
  averaged rate: 0.894
  normalized rate: 1.000 and 0.795 and 0.887
SthK P300A; delay time 0.250 s
  averaged rate: 1.060
  normalized rate: 1.026 and 1.272 and 0.881
SthK P300A; delay time 0.500 s
  averaged rate: 1.153
  normalized rate: 1.146 and 1.160
SthK P300A; delay time 1.000 s
  averaged rate: 1.068
  normalized rate: 1.172
SthK P300A; delay time 2.500 s
  averaged rate: 1.001
  normalized rate: 1.067 and 1.000
SthK P300A; delay time 5.000 s
  averaged rate: 0.966
  normalized rate: 1.000 and 0.922
SthK P300A; delay time 10.000 s
  averaged rate: 0.867
  normalized rate: 0.930 and 0.866 and 0.804
